# Molecular target: the molecule itself
# Experiment: cryo-EM structure
row,Protein,stoichiometry N
1,C-terminal Strep-tag HsMCU (human mitochondrial calcium uniporter) (natural protein) VHQRIASWQNLGAVYCSTVVPSDDVTVVYQNGLPVISVRLPSRRERCQFTLKPISDSVGVFLRQLQEEDRGIDRVAIYSPDGVRVAASTGIDLLLLDDFKLVINDLTYHVRPPKRDLLSHENAATLNDVKTLVQQLYTTLCIEQHQLNKERELIERLEDLKEQLAPLEKVRIEISRKAEKRTTLVLWGGLAYMATQFGILARLTWWEYSWDIMEPVTYFITYGSAMAMYAYFVMTRQEYVYPEARDRQYLLFFHKGAKKSRFDLEKYNQLKDAIAQAEMDLKRLRDPLQVHLPLRQIGEKD,4
2,human MCU/EMRE complex (one channel: MCU tetramer with four EMRE subunits) (complex) chain 1: VHQRIASWQNLGAVYCSTVVPSDDVTVVYQNGLPVISVRLPSRRERCQFTLKPISDSVGVFLRQLQEEDRGIDRVAIYSPDGVRVAASTGIDLLLLDDFKLVINDLTYHVRPPKRDLLSHENAATLNDVKTLVQQLYTTLCIEQHQLNKERELIERLEDLKEQLAPLEKVRIEISRKAEKRTTLVLWGGLAYMATQFGILARLTWWEYSWDIMEPVTYFITYGSAMAMYAYFVMTRQEYVYPEARDRQYLLFFHKGAKKSRFDLEKYNQLKDAIAQAEMDLKRLRDPLQVHLPLRQIGEKD chain 2: VSAAWSGSGRSLVPSRSVIVTRSGAILPKPVKMSFGLLRVFSIVIPFLYVGTLISKNFAALLEEHDIFVPEDDDDDD,2
